Values joined by “and” are separate entries in the source; they are usually repeats but may differ in a detail not shown here. Equal values may be shown once. Read-outs that look alike come from different tables or passages of the source.
Tests used:
[1] = molecular target: GST-hSV2C 455-579 (human synaptic vesicle glycoprotein 2C, luminal domain 4, GST fusion) (UniProt Q496J9); details: 25 °C, PBS (composition not given) at pH 7.3, 150 mM NaCl at pH 5.0
[2] = molecular target: GST-hSV2C 455-579 (human synaptic vesicle glycoprotein 2C, luminal domain 4, GST fusion) (UniProt Q496J9); test: SPR (Biacore X100), kinetic evaluation; details: pH 7.3; 25 °C; PBS (composition not given) at pH 7.3; PBS (pH 7.3)
[3] = molecular target: synaptotagmin LD (Rattus norvegicus) (UniProt P29101); test: ITC; details: cited from earlier work
UniProt P29101, sequence (P29101 1-60): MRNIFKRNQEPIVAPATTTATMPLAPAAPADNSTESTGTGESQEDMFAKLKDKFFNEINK

UniProt Q496J9, sequence (Q496J9 whole entry, the tested form may be a part): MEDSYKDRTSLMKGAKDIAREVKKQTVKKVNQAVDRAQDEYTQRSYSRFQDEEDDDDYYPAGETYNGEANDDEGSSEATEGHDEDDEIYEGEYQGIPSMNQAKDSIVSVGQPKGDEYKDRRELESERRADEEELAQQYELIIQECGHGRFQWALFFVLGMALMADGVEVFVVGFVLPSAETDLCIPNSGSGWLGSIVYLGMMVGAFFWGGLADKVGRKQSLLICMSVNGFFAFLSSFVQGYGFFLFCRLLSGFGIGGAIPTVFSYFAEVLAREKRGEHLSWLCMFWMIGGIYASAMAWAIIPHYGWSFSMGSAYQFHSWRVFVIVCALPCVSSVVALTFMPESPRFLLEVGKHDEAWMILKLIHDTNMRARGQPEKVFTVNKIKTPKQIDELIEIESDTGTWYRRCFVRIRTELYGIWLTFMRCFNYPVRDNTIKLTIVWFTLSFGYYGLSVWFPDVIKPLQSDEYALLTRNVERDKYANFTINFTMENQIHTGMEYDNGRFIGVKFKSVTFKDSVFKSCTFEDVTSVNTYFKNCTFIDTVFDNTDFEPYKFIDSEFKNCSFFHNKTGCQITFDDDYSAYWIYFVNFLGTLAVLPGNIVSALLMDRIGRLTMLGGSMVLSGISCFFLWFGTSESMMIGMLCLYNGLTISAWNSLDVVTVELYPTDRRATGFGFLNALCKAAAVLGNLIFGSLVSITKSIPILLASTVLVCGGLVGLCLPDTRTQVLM

Substance | KD Steady State ([1]; pH 5.0) [nM] | KD Steady State ([1]; pH 7.3) [nM] | KD Kinetics [2] [nM] | ka [2] [M⁻¹ s⁻¹] | kd [2] [s⁻¹] | Kd [3]
Botulinum neurotoxin serotype A HC fragment (HCA / HCAS), 50 kDa cell-binding domain | > 1200 | 400 | 390 | 310000 | 0.12 | 
BoNT/B (from UniProt P10844) |  |  |  |  |  | 140 nM and 34 nM
